Measured values taken from FireProtDB (doi:10.1002/prot.20496).
“And” between values parts separate entries of the source, which are not always exact repeats. Equal entries are not always repeated.

Conditions: Capra hircus, pH 7.5, Thermal, Tris-HCl 10 mM, CaCl2 2 mM, whole UniProt chain shown

B1: Alpha-lactalbumin wild type, P00712 (protein)
chain: MMSFVSLLLVGILFHATQAEQLTKCEVFQKLKDLKDYGGVSLPEWVCTAFHTSGYDTQAIVQNNDSTEYGLFQINNKIWCKDDQNPHSRNICNISCDKFLDDDLTDDIVCAKKILDKVGINYWLAHKALCSEKLDQWLCEKL
DSC
  Tm: 71 °C and 71.1 °C
Fluorescence
  Tm: 70.7 °C and 71.2 °C and 69.9 °C
